# Data reported in US8722052B2, “Vaccinia virus protein A46 peptide and use thereof” (priority 2008, dated 2014).
# What was measured:
# TLR7 = target: T1, TLR7 (Mus musculus, UniProt P58681); assay: murine TLR7 response; assay type: cell-based
# T1 sequence (P58681 27-1050): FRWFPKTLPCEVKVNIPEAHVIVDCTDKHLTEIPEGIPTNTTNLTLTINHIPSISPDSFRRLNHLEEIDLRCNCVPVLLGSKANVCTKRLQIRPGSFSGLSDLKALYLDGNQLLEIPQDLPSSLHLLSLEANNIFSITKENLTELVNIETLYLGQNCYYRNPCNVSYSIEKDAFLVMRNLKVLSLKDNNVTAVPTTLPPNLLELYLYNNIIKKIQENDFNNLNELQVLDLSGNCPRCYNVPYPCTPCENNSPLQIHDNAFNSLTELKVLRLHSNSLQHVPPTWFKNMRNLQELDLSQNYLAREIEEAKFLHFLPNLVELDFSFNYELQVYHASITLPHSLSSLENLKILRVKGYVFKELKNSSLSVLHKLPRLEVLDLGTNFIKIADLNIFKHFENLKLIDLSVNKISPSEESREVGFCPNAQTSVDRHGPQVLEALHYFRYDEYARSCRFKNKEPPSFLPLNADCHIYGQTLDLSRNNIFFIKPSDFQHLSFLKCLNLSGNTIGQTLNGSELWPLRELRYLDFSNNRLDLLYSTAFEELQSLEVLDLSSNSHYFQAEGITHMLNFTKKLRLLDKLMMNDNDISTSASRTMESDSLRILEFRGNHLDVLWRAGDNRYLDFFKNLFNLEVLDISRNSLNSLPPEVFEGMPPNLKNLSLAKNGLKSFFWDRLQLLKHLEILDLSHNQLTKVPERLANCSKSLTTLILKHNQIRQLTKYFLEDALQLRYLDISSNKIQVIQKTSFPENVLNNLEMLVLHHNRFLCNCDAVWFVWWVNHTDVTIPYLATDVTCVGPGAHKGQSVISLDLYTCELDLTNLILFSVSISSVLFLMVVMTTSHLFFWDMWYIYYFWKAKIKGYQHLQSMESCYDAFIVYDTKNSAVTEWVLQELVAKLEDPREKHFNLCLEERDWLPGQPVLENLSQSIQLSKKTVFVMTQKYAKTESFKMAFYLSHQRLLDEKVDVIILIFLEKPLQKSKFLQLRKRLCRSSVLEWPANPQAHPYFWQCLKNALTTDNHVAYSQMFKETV
# p38 MAPK = assay: LPS-induced phospho-p38 MAPK in RAW264.7 cells, immunoblot; assay type: cell-based, murine; details: peptide 5 μM, 10 ng/ml LPS 5, 30 or 60 min
# Description: FIGS. 28A and B are immunoblots showing the effect of A464 on LPS-induced appearance of phospho-p38 MAPK in murine RAW264.7. Cells were set up as for FIG. 24 above and 5 μM A467 (SEQ ID NO. 23) or A464 (SEQ ID NO. 20) were added to the wells 1 hour before stimulation. Cells were stimulated with 10 ng/ml LPS for a period of 5, 30 or 60 min, then harvested and lysed. Proteins were resolved by SDS-PAGE, and transferred membranes immunoblotted for phospho-p38 (A) or total p38 (B). The blots shown are representative of two experiments;
# RAW264.7 cells were seeded at a density of 1×10^5 cells/ml in 6 well plates. After treatment with peptides and agonists, as described above in relation to the Figs, the medium was removed and the cells were washed once with PBS before scraping them in 100 μl lysis buffer (100 mM NaCl, 50 mM HEPES (pH 7.5), 1 mM EDTA, 0.5% NP-40, 10% Glycerol) and incubating them on ice for 40 min. Samples were spun at 15,000×g for 10min and supernatants collected and stored at −20° C. […] The protein concentration was determined by monitoring the change in the solution absorbance at 280 nm using a spectrophotometer compared to protein standards. […] Thereafter, the membranes were washed, incubated in appropriate secondary antibody and then developed using standard enhanced chemi-luminescence (ECL) reagents. […]
# cell viability = assay: MTT cell viability assay, more detailed investigation of screening hits; assay type: cell-based; details: cell type not stated
# Description: Cell viability was measured by assessing mitochondrial function using an MTT (3-(4,5-Dimethylthiazol-2-yl)-2,5-diphenyltetrazolium bromide) assay. Cells were seeded into 96 well plates and treated with peptides and agonists as described above in relation to the Figs. Wells containing medium only served as a blank control. To terminate treatment of cells, medium was removed and the cells were washed once with PBS. 200 μl per well of 1 mg/ml MTT in PBS was added directly to the cells and the plates were incubated at 37° C. for 14-16 hrs in the dark. MTT was then removed and 200 μl per well of dimethyl sulphoxide (DMSO) was added and cells incubated for 20 min at 37° C. in the dark, prior to absorbance being read at 595 nm on a spectrophotometer.
sequence,measurement,setting,value
KYSFKLILAEYRRRRRRRRR [Peptide A464],inhibition of murine TLR7,TLR7,insensitive
same,inhibition of LPS-induced p38 phosphorylation,p38 MAPK,very potent inhibition of LPS-induced p38 phosphorylation at all the time points
same,cell viability (MTT assay),cell viability,less toxic
